The record followed here is IntAct's records for PubMed 27150041.

B1: Smu-2 suppressor of mec-8 and unc-52 protein (Caenorhabditis elegans), Q9N4U5 (parent)
chain: MADNPTNLRNADFRKLLTSARSDRPAVSAFAKPADPKTGDDKPASFKHKHLKPAKFKKPQAAAHGKAKKEKTEADEDEAALKNILKNYRDRAAERRKQGDEKEDPSKLTAAYRAVPGDARSAQDQADLRKQAILESKYLGGDLEHTHLVKGLDYSLLNKVRSEIDKSDDDDDDDIDTAFDEKVTSSSSSSKPSEASLLAQELAQSHSENRMVRSLHRVLFKNEVPLHNQLFAKGRMAYVVELEDEETDIPTTLLRSLHDLPRAESAQSIQANNLIILKLSHVLSHLRAEPKKKKKEEFRVQLGSRDAPGAAAAAPGAKGDSIYDDLDDYVPSRKSRDSRDAGRRGSRRDRSRDRSRDRDRDRDRDNRDRYFEKSANSRREEEQNRREQQRERERAEQERRREREKEREQEKAKEREKKRKELEESSGYDECYPGGLVEMGGAWDSDEEADYSKMDAGPKKNQAVNRWDFDTEEEYASYMEGREALPKAAYQYGVKNGEGGRKNKKQSAVSDAKRLDRELNEINKIMDKRKAGGDGAGGGGDYKKPKY

Variants of B1 are the subject of this experiment. The settings on record: with smu1_caeel smu-1, G5EEG7.
smu1_caeel smu-1, G5EEG7, sequence (G5EEG7 whole entry): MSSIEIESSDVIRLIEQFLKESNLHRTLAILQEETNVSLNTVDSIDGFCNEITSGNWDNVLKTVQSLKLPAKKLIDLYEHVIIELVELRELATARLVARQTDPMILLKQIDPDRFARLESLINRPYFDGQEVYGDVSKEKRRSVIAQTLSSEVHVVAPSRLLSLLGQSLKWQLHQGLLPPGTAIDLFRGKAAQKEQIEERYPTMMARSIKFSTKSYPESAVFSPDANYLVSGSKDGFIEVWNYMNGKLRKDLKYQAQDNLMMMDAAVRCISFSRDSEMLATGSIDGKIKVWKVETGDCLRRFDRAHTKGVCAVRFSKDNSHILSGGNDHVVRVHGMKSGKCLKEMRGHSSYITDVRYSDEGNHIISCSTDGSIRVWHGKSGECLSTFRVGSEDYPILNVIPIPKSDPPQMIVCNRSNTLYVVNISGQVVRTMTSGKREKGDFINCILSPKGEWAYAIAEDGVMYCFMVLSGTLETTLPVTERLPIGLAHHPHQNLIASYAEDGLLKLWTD
For the variant MADNPTNLRNADFRKLLTSARSDRPAVSAFAKPADPKTGDDKPASFKHKHLKPAKFKKPQAAAHGKAKKEKTEADEDEAALKNILKNYRDRAAERRKQGDEKEDPSKLTAAYRAVPGDARSAQDQADLRKQAILESKYLGGDLEHTHLVKGLDYSLLNKVRSEIDKSDDDDDDDIDTAFDEKVTSSSSSSKPSEASLLAQELAQSHSENRMVRSLHRVLRKNEVPLHNQLFAKGRMAYVVELEDEETDIPTTLLRSLHDLPRAESAQSIQANNLIILKLSHVLSHLRAEPKKKKKEEFRVQLGSRDAPGAAAAAPGAKGDSIYDDLDDYVPSRKSRDSRDAGRRGSRRDRSRDRSRDRDRDRDRDNRDRYFEKSANSRREEEQNRREQQRERERAEQERRREREKEREQEKAKEREKKRKELEESSGYDECYPGGLVEMGGAWDSDEEADYSKMDAGPKKNQAVNRWDFDTEEEYASYMEGREALPKAAYQYGVKNGEGGRKNKKQSAVSDAKRLDRELNEINKIMDKRKAGGDGAGGGGDYKKPKY [F220R], the “effect of a mutation on the interaction” value is on record as “disrupting interaction strength”.
Take MADNPTNLRNADFRKLLTSARSDRPAVSAFAKPADPKTGDDKPASFKHKHLKPAKFKKPQAAAHGKAKKEKTEADEDEAALKNILKNYRDRAAERRKQGDEKEDPSKLTAAYRAVPGDARSAQDQADLRKQAILESKYLGGDLEHTHLVKGLDYSLLNKVRSEIDKSDDDDDDDIDTAFDEKVTSSSSSSKPSEASLLAQELAQSHSENRMRRSLHRVLFKNEVPLHNQLFAKGRMAYVVELEDEETDIPTTLLRSLHDLPRAESAQSIQANNLIILKLSHVLSHLRAEPKKKKKEEFRVQLGSRDAPGAAAAAPGAKGDSIYDDLDDYVPSRKSRDSRDAGRRGSRRDRSRDRSRDRDRDRDRDNRDRYFEKSANSRREEEQNRREQQRERERAEQERRREREKEREQEKAKEREKKRKELEESSGYDECYPGGLVEMGGAWDSDEEADYSKMDAGPKKNQAVNRWDFDTEEEYASYMEGREALPKAAYQYGVKNGEGGRKNKKQSAVSDAKRLDRELNEINKIMDKRKAGGDGAGGGGDYKKPKY [V212R]: the “effect of a mutation on the interaction” value is recorded as “disrupting interaction strength”.
